Drawing on the supplement of paper PMC12042874, this text covers amyloid nucleation score for 132 substances.

The nature of this data set: amyloid nucleation score (Sup35N fusion, yeast selection) (log enrichment); library NNK3; higher = more nucleation; inactive = no reads after selection. The essentials: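 DiMSum was used to calculate nucleation scores as log enrichment of output over input reads, centred on the mode score of non-aggregating sequences. Sequences with fewer than 100 input reads were not scored. Input and output came from Illumina sequencing of plasmid inserts in psi-negative yeast expressing peptides of 20 random codons fused to Sup35N, induced 24 hours with 100 μM copper sulfate and then grown 7 days at 30°C on medium lacking adenine and uracil.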

± gives the uncertainty stated by the source.

As to LERVSVSTQYLRLHLDLNSF, the amyloid nucleation score entry is “inactive”.

Regarding LRGITLSMQGCTDWFVMYLC, the amyloid nucleation score entry was “inactive”.

As for GLCNNHIGKIFTYWNTPLDY, the amyloid nucleation score entry was “inactive”.

The substance VSVLYYLKY displayed an amyloid nucleation score of 0.132 ± 0.28.

The substance QASIVSTG showed an amyloid nucleation score of -0.926 ± 2.4.

For the substance DYNILQSRMSYRAYMCSLHV, the amyloid nucleation score entry was “inactive”.

SNPHIILID: the amyloid nucleation score entry was “inactive”.

For GNSDR, the amyloid nucleation score result is “inactive”.

Turning to NPVRSKWYKVCCDNVGVYMD, the amyloid nucleation score entry was “inactive”.

As to LIRMQVGLLGV, the amyloid nucleation score entry is “inactive”.

In the case of CIFTIFNYQTLIELSHYFSR, the amyloid nucleation score worked out at 1.82 ± 0.067.

As to THFQEPLSESGDRCLDDGYL, the amyloid nucleation score result was “inactive”.

For the substance RKHLDLT, the amyloid nucleation score entry was “inactive”.

With KRYNNIAYFVYLLFSLGVTT, the amyloid nucleation score result is “inactive”.

On to MALWASSKAEVIVVIKCLGD, for which the amyloid nucleation score result was “inactive”.

HAWTQPNHI: the amyloid nucleation score result is “inactive”.

With VNFWMMRHAGCCKVHNKLSV, the amyloid nucleation score entry is “inactive”.

DDGGVTVVWTCGRVCIQMGN came in with an amyloid nucleation score of 0.399 ± 0.24.

Regarding VYSFTAKHRYSWFVCNDGVK, the amyloid nucleation score entry is “inactive”.

As for NTWPTPSLWLVLNKTLRKTS, the amyloid nucleation score result was “inactive”.

With RNGVHS, the amyloid nucleation score was 0.149 ± 0.81.

KYWICVFFVMIRDPIAYWDD: the amyloid nucleation score entry was “inactive”.

As for QPCDHWHEDLNVCVVVIYAG, the amyloid nucleation score entry was “inactive”.

For the substance LWHVF, the amyloid nucleation score result was “inactive”.

As for RRMRFCKTSYEYLCNYAAPK, the amyloid nucleation score entry is “inactive”.

In the case of RHLMYPNRNMMVWSSFSDLG, the amyloid nucleation score entry is “inactive”.

Turning to ALCKVMSKLPSISW, the amyloid nucleation score entry was “inactive”.

Regarding CIPCTVTFG, the amyloid nucleation score entry was “inactive”.

Turning to HKNVCRIQRR, the amyloid nucleation score result is “inactive”.

In turn, WHKKLGYTSFNRKLGFMASG returned an amyloid nucleation score of 0.101 ± 0.45.

Take FCDNQWRHKPTRVTIFFE: the amyloid nucleation score result is “inactive”.

Regarding SKTMALMYLSFQPHYLYTLC, the amyloid nucleation score entry is “inactive”.

Take QNMFSSANRLMSTC: the amyloid nucleation score result is “inactive”.

On to QFNMKVFMHDWWRLLLPKSK, for which the amyloid nucleation score result was “inactive”.

Turning to KGHDAHVAVRVFTGGGLV, the amyloid nucleation score entry was “inactive”.

Regarding GRMFVNVNFAIQCYMAFTYL, the amyloid nucleation score amounted to 2.42 ± 0.071.

Turning to LVPIVVGKRFPIYVGVGPKG, the amyloid nucleation score entry is “inactive”.

Regarding NINRFLDLSSWIGYQNGYKA, the amyloid nucleation score result is “inactive”.

For the substance VYAEKMMVSSHLCGLRRRFK, the amyloid nucleation score entry was “inactive”.

As for EPNRVLMKVQYRNSPCYTRR, the amyloid nucleation score result is “inactive”.

As to VLRVMCRCDCNTGFAKRESV, the amyloid nucleation score result was “inactive”.

With RCFYKRYNYLS, the amyloid nucleation score entry was “inactive”.

Consider VTSYYSHISYVTL, for which the amyloid nucleation score entry was “inactive”.

For LSIIRKVADRGDPSDLYKMV, the amyloid nucleation score result is “inactive”.

VTGMFDSSLRRKMKVPVWAI: the amyloid nucleation score entry was “inactive”.

With PLVDPLGELYAATFCSGEYC, the amyloid nucleation score result was “inactive”.

As to TIGSAWFGKLGDGLALFGLF, the amyloid nucleation score result is “inactive”.

As to ARKMRKAMYLRGTSALVPCL, the amyloid nucleation score result was “inactive”.

For LLVVNNCIYGMVKRSIGYD, the amyloid nucleation score was determined as 2.13 ± 0.07.

Regarding DRHSTYCLAS, the amyloid nucleation score result was “inactive”.

With GFGDRMDNPSVVSK, the amyloid nucleation score result is “inactive”.

Regarding KIFVSFNKSKLEVHPPLKVI, the amyloid nucleation score result was “inactive”.

As to FPWSSRATRSGEVTV, the amyloid nucleation score result is “inactive”.

With SSAIYVMRLPQCMAECSRPR, the amyloid nucleation score result is “inactive”.

As for FVRSQSCS, the amyloid nucleation score result was “inactive”.

On to SCTRIVY, for which the amyloid nucleation score result is “inactive”.

For the substance EPVFCMWLDMGLGPNDCRMA, the amyloid nucleation score entry was “inactive”.

As to IVCCQYQNYLNGSPLNIVLI, the amyloid nucleation score result is “inactive”.

On to GNCHDVWVYVLCTVGMSLMR, for which the amyloid nucleation score entry was “inactive”.

Take CVLKMLNNHHAHFILNGCRT: the amyloid nucleation score entry was “inactive”.

As to IYYSRHEYSDCV, the amyloid nucleation score entry was “inactive”.

As to PPRSSLFTFNIFKYNNLYNA, the amyloid nucleation score worked out at 2.72 ± 0.066.

With WIKVDTPFEGFVRYAIDSGV, the amyloid nucleation score entry was “inactive”.

Consider EDYLFHLLRDPRRTGWLIWF, for which the amyloid nucleation score result is “inactive”.

For SFRFYVERL, the amyloid nucleation score result was “inactive”.

WMRVSCDTRGYSSFQAY came in with an amyloid nucleation score of -0.538 ± 0.75.

Consider MLCDVSKVDLSRLLGAGVYD, for which the amyloid nucleation score entry is “inactive”.

As to HFILFSSYPFYF, the amyloid nucleation score entry is “inactive”.

As to LEALSLDVNDVVRQYSNSEG, the amyloid nucleation score entry is “inactive”.

Regarding GTVLNSLPQQVGCLRLGSQG, the amyloid nucleation score entry was “inactive”.

For the substance GSDFTESCVDFFLVVNVDAV, the amyloid nucleation score result is “inactive”.

In the case of RVRNDYLPDRHWFSKHRGTK, the amyloid nucleation score entry was “inactive”.

Regarding ELISGLLRVGLDLKKAVSFD, the amyloid nucleation score result was “inactive”.

Consider VSYKKDCMQTSLRLVITF, for which the amyloid nucleation score entry was “inactive”.

Consider ITVVQANMSVWSTARVDMLD, for which the amyloid nucleation score was determined as 1.12 ± 0.16.

On to IQMGGWIIMYSAGCGA, for which the amyloid nucleation score entry is “inactive”.

As for FVLMPSSFYNYWTTSEDFRS, the amyloid nucleation score entry is “inactive”.

KRGNSANPS: the amyloid nucleation score entry is “inactive”.

With SIWWYNLVVI, the amyloid nucleation score entry was “inactive”.

IYSIVFFSRSLTVRVFGAHY: the amyloid nucleation score entry was “inactive”.

As for HLTVVSSKYITPSGTLMELH, the amyloid nucleation score is 0.648 ± 0.27.

As for TYPSEVYFIMFAMFSSTCWS, the amyloid nucleation score entry is “inactive”.

CWYQPPNDNVYFMMILYI returned an amyloid nucleation score of 1.97 ± 0.084.

Substance PSSSYPKSLRINMAFSFLMC displayed an amyloid nucleation score of 0.49 ± 0.53.

TWMKMSTEWRTLDLDCWNSS came in with an amyloid nucleation score of 1.34 ± 0.13.

For RGMKDCCTRWALRYWDVSVL, the amyloid nucleation score result is “inactive”.

For the substance RRMAETKHGAPMQRVLK, the amyloid nucleation score result is “inactive”.

On to GVHHDCDYCRYLDDDVKLWW, for which the amyloid nucleation score result was “inactive”.

For SGKSFNVTGLPCMAWCRATD, the amyloid nucleation score result was “inactive”.

Regarding NRFWLLCDFLFVHTCV, the amyloid nucleation score turned out to be 0.897 ± 0.2.

As to SFVMGSAANL, the amyloid nucleation score result is “inactive”.

Regarding GESSP, the amyloid nucleation score result is “inactive”.

As for SITSFDFLINRVSMPSYNCG, the amyloid nucleation score entry was “inactive”.

Regarding NWIYYTMWSL, the amyloid nucleation score worked out at 0.581 ± 0.17.

On to FTSEAPIKVQHWVYTSLPSV, for which the amyloid nucleation score entry is “inactive”.

For RIYTYKRIYRIKVLITWNRL, the amyloid nucleation score entry is “inactive”.

STWGEFVH: the amyloid nucleation score result is “inactive”.

In the case of HRLTCELFTWMPAEVCVWAD, the amyloid nucleation score entry was “inactive”.

For the substance AVWNFTQFYAENEGHNVSLS, the amyloid nucleation score result was “inactive”.

For CLATN, the amyloid nucleation score entry is “inactive”.

Consider CFAFGW, for which the amyloid nucleation score result is “inactive”.

For the substance IYPMLW, the amyloid nucleation score is -0.428 ± 0.62.

Regarding VVDNRNLSTCFYFRCVDWCQ, the amyloid nucleation score entry is “inactive”.

For the substance CHYRYISYVENFPCSERVSI, the amyloid nucleation score result was “inactive”.

As for CLILCLIKYIERRFCWCFPW, the amyloid nucleation score entry was “inactive”.

For the substance RVVYL, the amyloid nucleation score is -0.667 ± 1.8.

Substance REDWRLFNCTTFSAPSSC had an amyloid nucleation score of -0.217 ± 0.66.

For KYVLSKI, the amyloid nucleation score result was “inactive”.

For TLGLAVFDNSMDRWYEDVKK, the amyloid nucleation score entry is “inactive”.

With EIFVFTM, the amyloid nucleation score result is “inactive”.

With PWCVKIHRWVLYWSYKLSIS, the amyloid nucleation score entry is “inactive”.

Turning to TFFSYSRTALGATYYSLIIC, the amyloid nucleation score result was “inactive”.

SWNTL: the amyloid nucleation score entry was “inactive”.

Turning to EFQNISWYTKLEGEYCGEMV, the amyloid nucleation score result is “inactive”.

With AMVYMMNLEIHVYSIRYA, the amyloid nucleation score was found to be 1.68 ± 0.094.

As to ESRMDRCCPSFGMCSLRYQK, the amyloid nucleation score entry is “inactive”.

For STQGCLCRYPG, the amyloid nucleation score was -0.333 ± 0.88.

Regarding RERPRD, the amyloid nucleation score entry was “inactive”.

Consider NVGTS, for which the amyloid nucleation score result was “inactive”.

For RCREFERKLALSLQSVGS, the amyloid nucleation score entry was “inactive”.

As for CFAIYSLLYRVR, the amyloid nucleation score was determined as 1.55 ± 0.074.

Turning to KLILFLTRVFRSFQVSWRQF, the amyloid nucleation score result is “inactive”.

With GRTWFKYPHSDSGCSFWLTA, the amyloid nucleation score result was “inactive”.

Turning to FCFSGRMTYHFTTWFIKRRS, the amyloid nucleation score entry is “inactive”.

On to DRVITSNFFSSVWTQT, for which the amyloid nucleation score entry is “inactive”.

For KKYFSVRWVTFWISRV, the amyloid nucleation score result was “inactive”.

As to QHMSRYYVFLLNCIQCIMNG, the amyloid nucleation score was 1.58 ± 0.12.

On to WYALYAKYASTPGFCACLRG, for which the amyloid nucleation score entry is “inactive”.

With TYVRHFVIRFMREGRSLGGR, the amyloid nucleation score result is “inactive”.

Consider KWNNCDF, for which the amyloid nucleation score result is “inactive”.

On to EGTKEF, for which the amyloid nucleation score result is “inactive”.

For GICEMVGTSYTFE, the amyloid nucleation score entry was “inactive”.
